The nature of this data set: label from the status in PepcDB records.

The values that follow come from a protein production outcome set (Wang et al. 2014).

Regarding “LQTLCDILRADPADSRTLTELGREIGASDRTLSRLFRSELGMTFPQWRTQLRLHHALVLLADSTPVTAVAHLCGWSSASAFIDAFRRTFGHTPGARPRD”, the protein production entry is given as “failed”.

Regarding “LQTSRDLLSSVLSSSLDGIIVFSAIRSAGDTIADFECVLVNPQAEKLFESTAEDIVGMRLREDMPRQEEKGLFEAYREVVETGEPAEMEVHYDTDGQDVWFQVMAVKVENGVAVTYRDITDRKEAERQIREQAQLLDKA”, the protein production entry is reported as “failed”.

As to “LRESEARFRMMADTSPIMLWVADQDKKMTFVNQSWLEFRGATLAEESGNGYLEGIHPDDKGHYLGVYSQAFGDRRRFELEYRYRRVDQQYRWIVNVGVPRYLEDGKFMGYVGSCLDITDRKQAQDILQKKLNQILLMRKISQEIRRSLQPTLIFQTAARQVGNVFAVSRCLIHNYSEATTLQVPVVAEYLGGQFTSLLAGEIAVEQAYDPTIIQGDRAMAVVDLDQDLNSTHTKAFYQRFQVKSFLAVRTSYQGKANGIIALHQCDRQRVWTADEIELLEAIAEQMGIALAQAALLEKERERRRELAQKNLELEKATWAAEAANRAKGEFLAMMSHEIRTPMNGVIGMT”, the protein production result was “failed”.

Consider “LRESEARLKGIAGNVPGLVFRLERDPAEGDLEFPYISEGSEALVGYAPSEIQHPQMGLRNLVHPEDRADYHRVQDLALASDQDWSWQGRILTRQGEQRWADIKASARHLGNGQVVWDGVVWDITQGKRAELALAKSQEQLRELSAHLESVREEEKARIAREVHDELGQM”, for which the protein production entry is listed as “not failed”.

Turning to “LRESKRFIEQVISHSPQLLYIFEPTTGSNIYLNGQSVDILGYTPEEIKARGVKFFLDVLHPDDLYLLERNLNYWQNAADGEVLTTEWRMKHKNGSWRWLRSRDVVFARDENHFPCKVLGTTQDITDSKLAELE”, the protein production result is listed as “failed”.

“LTECLSQGEDIRLSKILIFAGTTEGRKLSEHLCKRGIEHTVCVATEYGEIVLHENPFAHVHMGRMDSEGMRSFFAEQKCKLIVDATHPYAAIVTENIKQAVYAFNEAHAVTDNQADSSISENIEYVRLKRDTDISADYDNIRYFEDNEACAKALNNTDGNILLTTGSKELSVYCKTSDVRERLYVRVLPGLESISLCMHNDITGKHILALQGPFSTQLNEALIDQYDIRCLVTKKSGAAGGFIEKIAAAKNKNIPVYIVGQSVQDDGMSFEAVCEYIDSKYNKLHIMLAGIGMGNDACMTKAVSDAIESADIILGASRMIEKYSAKIDKKPYYLAEQIIPYLYEICADTAKISNVLILFSGDTGFYSGSRKLYLAIKNEISEGKLNADVSILPGISSVSYMAAAVGETYNDAYICSIHGVKLSNITSRISHHAKTFMLMSGVRDVNMLGHLLSSDERYGLQKCSVTVGYQLSYPDENISQLSPQECTKLKREGLYICMIKNPNPVAKNVTPQLSDAAFIREKVPMTKEEIRHVSICKLHLKSDSVLYDVGSGTGSIAVEAASLSDDMEVYAIEQKENAVQLITKNKEKHGLENIHVINAKAPDGMENLPVPTHAFIGGSSGNLKEIIEALKAKNPHIRIVINAISMETICEIKEIMSAYNVKNEDIVQLQVSRSKQIGHYHLMQAENPVWICSFEF”: the protein production entry is “failed”.

In the case of “MAAAAAAAAAAGAAGGRGSGPGRRRHLVPGAGGEAGEGAPGGAGDYGNGLESEELEPEELLLEPEPEPEPEEEPPRPRAPPGAPGPGPGSGAPGSQEEEEEPGLVEGDPGDGAIEDPELEAIKARVREMEEEAEKLKELQNEVEKQMNMSPPPGNAGPVIMSIEEKMEADARSIYVGNVDYGATAEELEAHFHGCGSVNRVTILCDKFSGHPKGFAYIEFSDKESVRTSLALDESLFRGRQIKVIPKRTNRPGISTTDRGFPRARYRARTTNYNSSRSRFYSGFNSRPRGRVYRGRARATSWYSPY”, the protein production entry was “failed”.

Take “MAAAGAPDGMEEPSMDTEAEAVATEAPARPLNCVEAEAVVGTAAEDSCDARGNLQPAPAQPPGDPAAQASVSNGEDAGGGAGRELVDLKIIWNKTKHDVKVPLDSTGSELKQKIHSITGLPPAMQKVMYKGLVPEDKTLREIKVTSGAKIMVVGSTINDVLAVNTPKDAAQQDAKAEESKKEPLCRQKQHRKVLDKGKPEDVMPSVKGAQERLPTVPLSGMYNKSGGKVRLTFKLEQDQLWIGTKERTEKLPMGSIKNVVSEPIEGHEDYHMMAFQLGPTEASYYWVYWVPTQYVDAIKDTVLGKWQYF”: the protein production result is listed as “failed”.

In the case of “MAAAPASDVCGGGSKKNCSGRRMSDAAPPVSSPPPRQKGLLGVVERLGNLLPEPVMIFVWLILGLMVLSAIGQALGWSASITYAGDEAPQFGELENGVLTYAASSLFSEANLARLFTEMPKTLTSFAPLGLVLVVILGAAVAERSGLFSALIRASLREAPKRILTPLVVIIGMVSHHASDAAYVVFIPLAGLLYAAVGRHPLAGIAAGFAAVSGGFAGNLTPGQFDVVLFGFTQEAARIIDPTWTMNPLGNWWYILAIVVVFTPIAWFLTDKVVEPRLGPWGGQADDALKAELAKSAVTADEKRGLKFAGLAALAIVALFAALSLIPGFTPLIDETKTGPAQLTPFYGALIAGFMMLFLAGGVAYGVGVGTVKTEGDVVNMMADGVRSVAPYIVFAFFAAHFVAMFNWSRLGPIAAIHGAETLKAMNLPAPLLLVSVLGFSSVLDLFIGSASAKWSALAPVVVPMFMLLGISPEMTTAAYRMGDSFTNLMTPLMSYFPLVLAMTRRWDPSMGVGSLLALMLPYALAFMVAGVAMTLAWVAFDWPLGPAAQVHYTPPGGLLK”, the protein production entry is on record as “failed”.

As for “MAAERKTKLSKNLLRMKFMQRGLDSETKKQLEEEEKKIISEEHWYLDLPELKEKESFIIEEQSFLLCEDLLYGRMSFRGFNPEVEKLMLQMNAKHKAEEVEDETVELDVSDEEMARRYETLVGTIGKKFARKRDHANYEEDENGDITPIKAKKMFLKPQD”, the protein production entry is reported as “not failed”.

On to “MAAFTGTTDKCKACDKTVYVMDLMTLEGMPYHKSCFRCSHCNGTLVICNYSSMDGVLYCKTHFEQLFKESGNFSKNFQTAGKTEKSNDAAPNRLSSFFSGTQDKCAACKKTVYPLEKMTMEGESYHKTCFRCAHSGCPLTHSSYAALDGVLYCKVHFSQLFLEKGNYNHVLQAAANHRRSTAEEDKTEPKEDEANPTEEETSDAAAEEHES”, for which the protein production entry is recorded as “failed”.

Regarding “MAAGFSSKTTRDSPHLSEIRVVLLGNNDCDRRRVVRSVLGDLTGESVGQCTVYDGEESRRRIRVVDAPGWNSNTPQSKLRESIERSAMLCAPGPHALLLVLPVRRNEDMSAGDIKSGMKLVEMLSERAWRHTIVVFACDEGTGGFSCSQKAKIVLEKCKGRGFYLQRQGGIAQLFTQIEDLVRDNGEDDVFLPQAYHELFRRKTEGLLHRRGNLRKKPVHLSKSEAGALGVEPFSVIVIAVLAAVLVSLSFGAEYGVFGGCAGLLLGSILPF”, the protein production entry is listed as “failed”.

On to “MAAGKRDYYEVLGISKNASSQDIKRAFRKLAMQYHPDRHKAENETTQKQNEEKFKEVNEAYEVLSDEEKRKLYDQFGHEGLNASGFHEAGFNPFDIFNSVFGEGFSFGMDGDSPFDFIFNRSKKRQQQIVVPYNLDIALVIEINFFEMTNGCNKTIKYERKVSCHSCNGFGAEGGESGLDLCKDCNGNGFVIKNQRSIFGTIQSQVLCSTCNGQGKQIKVKCKTCRSNKYTVTNQIKEINIPAGMYSGEALVDESGGNEFKGHYGKLIIQVNVLASKIFKRSDNNVIANVLVDPMVAIVGGVIELPTLEGIKEFNIRPGTKSGEQIVIPNGGIKFSKSFKRKAGDLIIIISYARPCEYTNLELKKLREFIKPNQEVKQYLNTLKNEYKT”, for which the protein production entry is on record as “failed”.

With “MAAGKTHDKITVIMTPFIASFFLFINMIFLEDLGSSLAFTILGVSIYMFGGYMFSGDLDIKSREFRRWGYLKFIWIPYQKLFEHRSVFTHGFILGPIIRILYVSIIPITISSLLYSFSIINISTPEMLKLVFNFILKNKILFGNMALALFLGSGLHTITDMIYSYFKRKFSYKKRKSSKKYSRSKRPSRRAA”, the protein production result is “failed”.

Regarding “MAAKKDYYAILGVPRNATQEEIKRAYKRLARQYHPDVNKSPEAEEKFKEINEAYAVLSDPEKRRIYDTYGTTEAPPPPPPGGYDFSGFDVEDFSEFFQELFGPGLFGGFGRRSRKGRDLRAELPLTLEEAFHGGERVVEVAGRRVSVRIPPGVREGSVIRVPGMGGQGNPPGDLLLVVRLLPHPVFRLEGQDLYATLDVPAPIAVVGGKVRAMTLEGPVEVTIPPRTQAGRKLRLRGKGFPGPAGRGDLYLEVRITIPERLTPEEEALWKKLAEAYYARA”, the protein production result was “failed”.
